# Source: US7541183B2, “Growth and differentiation of adult muscle stem cells with activators or inhibitors of Wnt signaling” (Ottawa Health Research Institute, priority 2003, dated 2009)
# What was measured:
# CD45+:Sca1+ muscle cells = format: cell-based
# Experimental: Mononuclear cells were washed twice with DMEM supplemented with 5% FBS, and suspended at a concentration of 2−3×10^6 cells/ml. […] Primary antibodies were diluted at 1:200, and Streptavidin Tri-Color Conjugate was diluted 1:1000. After two washes with DMEM at 4° C., cells were separated on a MoFlo cytometer (DakoCytomation), equipped with 3 lasers. Sort gates were strictly defined based on isotype control stained cells and single antibody staining. Dead cells and debris were excluded by gating on forward and side scatter profiles. Sorting was performed using single cell mode to achieve the highest possible purity. The purity of sorted populations was routinely >98%.
# Primary myoblasts were isolated from hind limb muscle of 3-week old Balb/c mice, and maintained in HAM's F-10 medium (Invitrogen) supplemented with 20% FBS, and 2.5 ng/ml bFGF (Invitrogen).
# For co-culture experiments, primary myoblasts or Wnt-expressing cells were mixed with purified CD45^+:Sca1^+ cells at a ratio of 1:1, and seeded on Collagen-coated 2-well Permanox Chamber Slides (Lab-Tek). The density was 2×10^4 cells/chamber for co-culture in growth conditions, and 4×10^4 cells/chamber for differentiation experiments. […] Fluoroscein or Rhodamine conjugated antibodies (Chemicon) were used for secondary detection. Cover slides were mounted and analyzed using a Zeiss Axioscop fluorescent microscope.
# [1] = test system: Myf5nLacZ+ satellite cells; assay: Impact of cardiotoxin injection on myogenic progenitors in injured muscle; format: in vivo, Myf5nLacZ mice; conditions: 18 hours post-ctx injection
# Experimental: For direct analysis of sorted cell populations, cells were washed and suspended in phosphate-buffered saline (PBS), and cytospun onto silanized slides (DAKO). X-gal staining was performed as described previously (Kablar, 1997, Development 124, 4729-4738).
# 5 to 8 week-old mice were anaesthetised with Halothane gas. 25 μl of 10 μM cardiotoxin (Latoxan) was injected directly into the TA muscle, using a 29 G 1/2 insulin syringe. For cell proliferation assays, 0.3 mg/kg of 5-bromo-deoxyuridine (BrdU, Sigma) was injected intraperitoneally 90 minutes prior to sacrificing animals. Cells that had incorporated BrdU were detected by flow cytometry using a FITC conjugated anti-BrdU antibody (ED Pharmingen). For sFRP experiments, 100 ng of recombinant sFRP 2 and 3 (R&D Systems) were injected into regenerating TA muscle. Control animals received injections of equal volumes of PBS. For analysis of total TA cell populations, 1×10^4 mononuclear cells were plated on collagen-coated chamber slides overnight and then stained with anti-Desmin antibody (DAKO) at 1:200. Donkey anti-mouse FITC (Chemicon) at 1:500 was used for secondary detection.
Substance,increase in CD45+:Sca1+ cell survival (CD45+:Sca1+ muscle cells; 100 ng/ml Shh),"myogenic differentiation efficiency of CD45+:Sca1+ cells (CD45+:Sca1+ muscle cells; recombinant Shh at 10 or 100 ng/ml, cells alone or in co-culture with myoblasts)",reduction in the number of Myf5nLacZ+ cells relative to uninjured muscle [1] [fold],reduction in the number of Myf5nLacZ+ cells relative to uninjured muscle ([1]; listed as ctx),number of Myf5nLacZ+ cells ([1]; uninjured muscle 4.1×10^4±1.6×10^4)
"Shh: recombinant Sonic Hedgehog (Shh-N, R&D Systems)",3-4 fold,did not influence,,,
cardiotoxin,,,~30,approximately 30 fold,1.18×10^3±1×10^3 cells/g tissue
